Measured values published in PMC6859904.
Read-outs that look alike come from different tables or passages of the source.

Measured: enzymatic_activity

VCP/p97: 3D (S13D, S282D, T761D) phosphomimetic
increases: phosphorylation at S13 | phosphorylation at S282 | phosphorylation at T761
